# Reference: paper doi:10.1101/181321 (bioRxiv, 2017)
# T1: C-terminal region of human Importin4 (C-Importin4, residues 668 to 1081) (human, UniProt Q8TEX9 668-1081)
# T1 sequence: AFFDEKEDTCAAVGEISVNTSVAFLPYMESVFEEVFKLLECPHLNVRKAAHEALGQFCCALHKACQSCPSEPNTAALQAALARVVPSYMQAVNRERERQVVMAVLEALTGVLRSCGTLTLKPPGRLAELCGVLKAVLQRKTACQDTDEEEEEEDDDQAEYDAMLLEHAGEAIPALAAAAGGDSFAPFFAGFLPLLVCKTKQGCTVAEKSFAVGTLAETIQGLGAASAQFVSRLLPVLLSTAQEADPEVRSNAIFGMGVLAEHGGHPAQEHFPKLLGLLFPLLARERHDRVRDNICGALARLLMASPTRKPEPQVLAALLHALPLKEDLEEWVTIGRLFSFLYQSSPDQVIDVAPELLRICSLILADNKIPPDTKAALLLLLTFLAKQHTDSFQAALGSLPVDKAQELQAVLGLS
# Tests used:
# [1] = molecular target: C-terminal biotinylated histone H3 peptide (1 to 35 a.a.) (UniProt P68431); assay: SPR
# [2] = molecular target: T1, C-terminal region of human Importin4 …; assay: SPR
Molecule,Kd [1] [nM],binding result [2]
"C-terminal region of human Importin4 (C-Importin4, residues 668 to 1081) (from UniProt Q8TEX9 668-1081) (domain or fragment)",1600,–
ARTKQTARKSTGGKAPRK [histone H3 peptide (1-18 a.a.)],–,binds
